Consider two molecules from US20130165328, “APPARATUS AND METHODS FOR KINETIC ANALYSIS AND DETERMINATION OF NUCLEIC ACID SEQUENCES” (ILLUMINA, INC., published 2013).

Data set [1] concerns the target KlenTaq polymerase (UniProt P19821 P19821:280-832). Nature of the data set: stopped-flow observed k1; 600 nM enzyme, 100 uM dGTP, 50 mM NaCl, 2 mM MgCl2, pH 7.5. The note with it: label: 6-FAM on internal T; hairpin. As for the experimental part:
The pre-steady kinetic analysis of Klenow or KlenTaq polymerase for incorporating the cognate nucleotide (dGTP) was monitored following the mixing of 6-carboxyfluorescein (6-FAM) dye label hairpin-DNA template with the enzyme (600 nM) and nucleotide (100 μM) in a reaction buffer containing 50 mM Tris-HCl, pH 7.5, 300 mM NaCl (or 50 mM NaCl in the KlenTaq reaction), 0.5 mM Dithiothreitol and 5 mM MgCl₂ (or 2 mM MgCl₂ in the KlentTaq reaction) in an Applied Photophysics SX20 stopped-flow spectrometer. The 6-FAM hairpin-DNA template was: 5′-[…].[…](6-FAM) CGAG-3′ (SEQ ID NO: 5).

For data set [2], the target named is BSU DNA polymerase I (Bacillus subtilis, UniProt O34996 O34996:1-880, second Ser after 6xHis tag replaced by Cys (in tag)). Nature of the data set: stopped-flow fluorescein quenching; correct dCTP signal rises and mismatch dATP signal falls with NaCl 62.5-375 mM; 10 mM MgSO4. As to conditions: label: fluorescein-dT in primer, 5 bases from incorporation site; primer/template with 5' template overhang. The source says: Theoretically, it was possible to use an enzyme simulation that predicts the feasibility of correct vs. mismatch base discrimination using enzyme-DNA binding kinetics. […] Rapid mixing is generally achieved using a fast delivery and mixing system to minimize the contribution of the diffusion constants to the overall access of the polymerase to the DNA templates. To determine the validity of the theoretical predictions for base discrimination based on DNA binding kinetics, correct (dCTP) and mismatch (dATP) nucleotides were rapidly mixed with BSU polymerase and FAM labeled 19/36 mer in the presence of various NaCl concentrations with a stopped flow instrument. Pre-steady state correct and mismatch nucleotide kinetic responses of polymerase/DNA binding were made by monitoring the extent of induced fluorescence quenching response. Correct and mismatch nucleotide responses were determined from the stopped flow kinetic raw traces (FIG. 23). The traces were normalized and the maximum fluorescence change was determined and subsequently, correlated with the extent of synchronized enzyme-DNA binding. As [NaCl] was increased and the nucleotide concentration was held constant, the fluorescence change for the correct nucleotide (leftmost bar in each pair of bars in FIG. 24B) was increased, while the response for the mismatch (rightmost bar in each pair of bars in FIG. 24B) was decreased. […]

KlenTaq polymerase, sequence (P19821 280-832, one chain of several): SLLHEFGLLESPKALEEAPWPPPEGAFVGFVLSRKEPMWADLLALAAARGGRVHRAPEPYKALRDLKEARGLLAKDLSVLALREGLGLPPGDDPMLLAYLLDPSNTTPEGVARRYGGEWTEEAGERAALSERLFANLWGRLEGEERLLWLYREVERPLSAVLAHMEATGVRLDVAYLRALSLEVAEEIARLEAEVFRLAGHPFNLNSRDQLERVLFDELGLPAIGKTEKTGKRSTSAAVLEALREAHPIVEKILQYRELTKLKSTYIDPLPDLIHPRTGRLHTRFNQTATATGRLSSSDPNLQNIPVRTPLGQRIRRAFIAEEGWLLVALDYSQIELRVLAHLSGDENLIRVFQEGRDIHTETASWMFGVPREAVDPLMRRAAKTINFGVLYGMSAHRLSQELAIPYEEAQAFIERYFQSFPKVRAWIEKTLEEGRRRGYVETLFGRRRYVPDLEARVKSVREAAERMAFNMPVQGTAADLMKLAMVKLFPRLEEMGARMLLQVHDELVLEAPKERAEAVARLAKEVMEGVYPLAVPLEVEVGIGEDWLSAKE

Take CGTTAGTAACCTCGAGGCAACTTAGCCTCGAG (structured_DNA) [6-FAM hairpin-DNA template]: in data set [1], the binding result is given as “binds”.

B1: 19/36 mer primer/template duplex (FAM-labelled) (dsDNA)
DNA 1: GCTTGCACAGGGCCTCGAC
DNA 2: CGTTAGTAAGGTCGAGGCCCTGTGCAAGC
For the molecule B1, in data set [2], the binding result is “binds”.
